Results as given in the Human Domainome abundance scans (Beltran et al. 2025).
± gives the uncertainty stated by the source.

B1: Gamma-crystallin C, residues 4 to 79; numbered along this chain, P07315 (parent)
chain: ITFYEDRAFQGRSYETTTDCPNLQPYFSRCNSIRVESGCWMLYERPNYQGQQYLLRRGEYPDYQQWMGLSDSIRSC

Variants of: B1
Test: abundance fitness (aPCA) (normalised: wild type 0, dead -1); higher = more abundant; growth selection in yeast, the domain comes from the species named
Conditions: Homo sapiens

Row | Variant | abundance fitness
1 | ITFYEDRAFQGRSYETVTDCPNLQPYFSRCNSIRVESGCWMLYERPNYQGQQYLLRRGEYPDYQQWMGLSDSIRSC [T17V] | -0.006 ± 0.099
2 | ITFYEDRAFQGRSQETTTDCPNLQPYFSRCNSIRVESGCWMLYERPNYQGQQYLLRRGEYPDYQQWMGLSDSIRSC [Y14Q] | -0.27 ± 0.22
3 | ITFYEDRAFQGRSIETTTDCPNLQPYFSRCNSIRVESGCWMLYERPNYQGQQYLLRRGEYPDYQQWMGLSDSIRSC [Y14I] | 0.003 ± 0.098
4 | ITFYEDRAFQGRSYETTTDCPYLQPYFSRCNSIRVESGCWMLYERPNYQGQQYLLRRGEYPDYQQWMGLSDSIRSC [N22Y] | 0.079 ± 0.14
5 | ITFYEDAAFQGRSYETTTDCPNLQPYFSRCNSIRVESGCWMLYERPNYQGQQYLLRRGEYPDYQQWMGLSDSIRSC [R7A] | -0.031 ± 0.089
6 | ITFYEDRAFQGRSYETTTDCPNLQPYFSRCNSIRVESGCWMLYERPNYQGQQYLLRRGEYPDHQQWMGLSDSIRSC [Y63H] | -0.234 ± 0.15
7 | ITFYEDRAFQGRSYETTTDCPNLQPYFSRCNSIRVESGCWMLYERPNYQGQQYLLRRGEYPDYQQWMGLSDSIRYC [S75Y] | -0.599 ± 0.25
8 | ITFYEDRAFQGRSYETTTDCPNLQPYFSRCNSIRVESGCWMLYERPNYQGQQYLLRRGEYPDYQVWMGLSDSIRSC [Q65V] | -0.041 ± 0.09
9 | ITFYDDRAFQGRSYETTTDCPNLQPYFSRCNSIRVESGCWMLYERPNYQGQQYLLRRGEYPDYQQWMGLSDSIRSC [E5D] | -0.008 ± 0.15
10 | ITFYEDRAFQGRSYETTTDCPNLQFYFSRCNSIRVESGCWMLYERPNYQGQQYLLRRGEYPDYQQWMGLSDSIRSC [P25F] | -0.076 ± 0.13
11 | ITFYEDRAFQGRSYETTTDCPNLQNYFSRCNSIRVESGCWMLYERPNYQGQQYLLRRGEYPDYQQWMGLSDSIRSC [P25N] | 0.048 ± 0.2
12 | ITFYEDRAFQGRSYETTTDCPNLQPYFSRCNSIRVESGCWMLYERPNYQGQQYLNRRGEYPDYQQWMGLSDSIRSC [L55N] | -0.85 ± 0.39
13 | ITFYEDRAFQGRSYETTTDCPNLQPYFSRCNSIRVESGCDMLYERPNYQGQQYLLRRGEYPDYQQWMGLSDSIRSC [W40D] | -0.849 ± 0.28
14 | ITFYEDRAFQGRSYETTTDCPNLQPYFSRCNSIRVESGCWMLYERPNYQGQQYLLRRGEYPDYQQWMDLSDSIRSC [G68D] | -0.042 ± 0.13
15 | ITFYEDRAFQGRSYETTTDCPNLQPYFSRCNDIRVESGCWMLYERPNYQGQQYLLRRGEYPDYQQWMGLSDSIRSC [S32D] | -0.812 ± 0.36
16 | ITFYEDRAFQGRSYETTTDVPNLQPYFSRCNSIRVESGCWMLYERPNYQGQQYLLRRGEYPDYQQWMGLSDSIRSC [C20V] | -0.133 ± 0.076
17 | ITFYEDRAFQGRSYETTTDCPNLQPYFSECNSIRVESGCWMLYERPNYQGQQYLLRRGEYPDYQQWMGLSDSIRSC [R29E] | -0.021 ± 0.096
18 | ITFYEDRAFQGRSYETTTDCPNLQPYFSMCNSIRVESGCWMLYERPNYQGQQYLLRRGEYPDYQQWMGLSDSIRSC [R29M] | 0.096 ± 0.096

Row | Variant | abundance fitness
19 | TTFYEDRAFQGRSYETTTDCPNLQPYFSRCNSIRVESGCWMLYERPNYQGQQYLLRRGEYPDYQQWMGLSDSIRSC [I1T] | -0.722 ± 0.3
20 | ITFKEDRAFQGRSYETTTDCPNLQPYFSRCNSIRVESGCWMLYERPNYQGQQYLLRRGEYPDYQQWMGLSDSIRSC [Y4K] | -0.862 ± 0.31
21 | ITFNEDRAFQGRSYETTTDCPNLQPYFSRCNSIRVESGCWMLYERPNYQGQQYLLRRGEYPDYQQWMGLSDSIRSC [Y4N] | -0.631 ± 0.28
22 | ITFYEDRAFQGRSYETTTDCPNLQPYFSRCNSIRVESGCWMLYERPNYQGQQYLLRCGEYPDYQQWMGLSDSIRSC [R57C] | 0.142 ± 0.26
23 | ITFYEDRAFQGRSYETTTDCPNLQPYFSRCNSIRVESGCWMLYERPNYQGQQYLLRRGEYQDYQQWMGLSDSIRSC [P61Q] | -0.051 ± 0.086
24 | ITFYEDRAFQGRSYETTTDCPNLQPYFSRCNSIRVESGCWMLYERPNYQGQQYLLRRGEYRDYQQWMGLSDSIRSC [P61R] | -0.038 ± 0.053
25 | ITFYEDRAFQGRSYETTTDCPNLQPYFSRCNSIRTESGCWMLYERPNYQGQQYLLRRGEYPDYQQWMGLSDSIRSC [V35T] | -0.081 ± 0.11
26 | ITFYEDRAFQGRSYETTTDCPNLQPYFSRCNSIRVESGCWMAYERPNYQGQQYLLRRGEYPDYQQWMGLSDSIRSC [L42A] | -0.102 ± 0.12
27 | ITMYEDRAFQGRSYETTTDCPNLQPYFSRCNSIRVESGCWMLYERPNYQGQQYLLRRGEYPDYQQWMGLSDSIRSC [F3M] | -0.071 ± 0.085
28 | ITFYEDRAFQGRSYETTTCCPNLQPYFSRCNSIRVESGCWMLYERPNYQGQQYLLRRGEYPDYQQWMGLSDSIRSC [D19C] | -0.052 ± 0.15
29 | ITFYEDRAFQGRSYETTTGCPNLQPYFSRCNSIRVESGCWMLYERPNYQGQQYLLRRGEYPDYQQWMGLSDSIRSC [D19G] | -0.101 ± 0.067
30 | ITFYEDRAFQGRSYETTTWCPNLQPYFSRCNSIRVESGCWMLYERPNYQGQQYLLRRGEYPDYQQWMGLSDSIRSC [D19W] | 0.059 ± 0.12
31 | ITFYEDRAFQGRSYETTTDCPNLQPYFSRCNSIRVESKCWMLYERPNYQGQQYLLRRGEYPDYQQWMGLSDSIRSC [G38K] | -0.177 ± 0.17
32 | ITFYEDRAFQGRSYETTTDCPNLQPYFSRCNSIRVESSCWMLYERPNYQGQQYLLRRGEYPDYQQWMGLSDSIRSC [G38S] | 0 ± 0.092
33 | ITFYEDRAFQGRSYETTTDCPNLQPYFSRCNSIRVESHCWMLYERPNYQGQQYLLRRGEYPDYQQWMGLSDSIRSC [G38H] | -0.309 ± 0.27
34 | ITFYEDRAFQGRSYETTTDCPNLQPDFSRCNSIRVESGCWMLYERPNYQGQQYLLRRGEYPDYQQWMGLSDSIRSC [Y26D] | -0.179 ± 0.23
35 | ITFYEDRAFQGRSYETTTDCPNLQPHFSRCNSIRVESGCWMLYERPNYQGQQYLLRRGEYPDYQQWMGLSDSIRSC [Y26H] | -0.082 ± 0.22
36 | ITFYEDRAFQGRSYETTTDCPNLQPEFSRCNSIRVESGCWMLYERPNYQGQQYLLRRGEYPDYQQWMGLSDSIRSC [Y26E] | -0.138 ± 0.11
